Source: the DeepSol protein solubility set

Assay: soluble on expression in E. coli; label from the status in PepcDB or PDB records

Soluble on expression in E. coli, not soluble:
MGSDKIHHHHHHMTLVSTLSFLKKLNKNNNKEWFDKNRSAYEEAKKEVKALVQLVIEKTAVFDPSIASLEPKDCMFRINRDVRFSKDKSPYKTNMGFMIAPGGKKSIKGCYYVHIEPGNCFIAGGIWMPMPEHLKLIRQEIDYNGDALKKIFSSKDVKKYFSDFDEESKLIRMPKDYEETHPYAEWLKLKSFTVTFPIDEAIFSDKKVVEEITKPFKGIHALNAFLNGALDS
MGSDKIHHHHHHMTMPTNQCPWRMQVHHITQETPDVWTISLICHDYYPYRAGQYALVSVRNSAETLRAYTISSTPGVSEYITLTVRRIDDGVGSQWLTRDVKRGDYLWLSDAMGEFTCDDKAEDKFLLLAAGCGVTPIMSMRRWLAKNRPQADVRVIYNVRTPQDVIFADEWRNYPVTLVAENNVTEGFIAGRLTRELLAGVPDLASRTVMTCGPAPYMDWVEQEVKALGVTRFFKEKFFTPVAEAATSGLKFTKLQPAREFYAPVGTTLLEALESNNVPVVAACRAGVCGCCKTKVVSGEYTVSSTMTLTDAEIAEGYVLACSCHPQGDLVLA
MGSDKIHHHHHHMTPIQSGILLEHRRFAIFMEAMIQGEFDAIRQGCKKFCQTLQELQQQYPDAGLGAVLAFGNDVWRDLDCNHCAAELKPFTPLGKGLAPATQRDLLIHIQSLRHDVNFTLAQAALAAFGSAIRIEEETHGFRWVEDRDLSGFIDGTENPQGDARHAVAIIPEGQPDAGGSYVFTQRWEHNLKQLQRFSVEQQEQMIGRTKQDNEELSSDERPVTSHLSRVDLKEDGKGLKILRQSLPYGTASGKNGLYFVAYCARLHNIEQQLLSMFGGRDGKRDDMLRFTRAVSGSYFFAPSLDQLLSL
MGSDKIHHHHHHMTPKRFAFVIADLYGGGAEKSLLYTAAGLHQRGHTVKVFILRDRIEQPIPDGVTVENLALINRFSKMFSTPLVEKWQAARIARTLDDFAADVVLSCSCDKITRHLRHPNLWFWIKSDISAKFSDPDQRAKAFAKVHRFYTGRNVVAVSQGVKDNLLDVIGLRPAEIRAIYNPYEREPFLRLAEEPAPVPEGEYLINVGTYEPRKRHDRLLRAYKASGVTTPLVLLGKGKGDEEARLRKMIEDMGLAERVILPGYQTNPYPFIRHAKALILTSDAEGLPRALIESLLLGTPVVSVDCPSGPREILAGELADFLVPREDEAALADAIARMDAAPITVTEAHYRPFLKETVLPQFEALARSA
MGSDKIHHHHHHMTPRISQKEVNDAVWNACDTFRGVVDASAYKDYVLTMLFLKYISDVWQDNYDTYKAEYGDAPELIEEMMKNERFVLPKDASFYALYERRFEAGNGERIDKALHAIEEANMGKLNDVFQDISFNSTKLGDDKQKNDILRHMLEDFSKPELNLRPSRIGNLDIIGNAYEFLIKHFAASSGKKAGEFYTPPEVSQLIAELVNPQEGDEICDPACGSASLLMKCAKLIKDRFGNRKYALYGQEAIGSTWSLAKMNMFLHSEDNHRIEWGDTLRNPLLLDGDDHLKHFDIVVANPPFSLDKWGHEAAEADRFGRFRRGIPPKTKGDYAFILHMIETLKPGTGRMGVVVPHGVLFRASSEGEIRKQLIKENLLDMVIGLPEKLFYGTGIPAAILVFRKNKKDNNVLFIDASREYQDGKNQNFLRDEDIQKVLDTAKARESVDKYAYLATLEEIRENDFNLNIPRYVDTFEEEEEIDLEAVLKERKELKADLAKLEVEMEGYLKELGYLTGEE
MGSDKIHHHHHHMTPTIVFDGGYTLWSAGDDAPLAFMTDGLARRLGTPVFKAFVRHPHASFDRRFGVQTLPNLEHESKAGAAGRWFRGLNFTDPRGELAAVADTVAQADLLIMGAGNFITEVGMDVLRGHLPRFCTMALMAQMAGTPYMLFGLSANVLHNPWAVRAAGWLLRGAAAVTFRERMAVENLRACGVALPEHTLLPDAALGAPRAPQGRGDEILRQEQIPSRTAGLRLALAVRDLSWMGSHAAALYERHQTELINLWCARKDNDVLLVPQCCYHADSGITDDRVLGRTLRGRSRFSDKVHVIEGCYHYDDIESLYTQADCAVATRLHGSVFAARMGIPVVGLAYEDKVRGFFGQLQAEDQCLPWDAPATDILALLDSLMLRVQAVRDHMLHRIEQLQQQLAGYIDIAAALAAPAGDHTP
